The source of these data is patent publication US20150284477.

For one series, the target named is T1, GGG-COOH.
T1 chain: GGG

The target in series [1] is T2, LAETG motif-bearing substrate (not fully specified).
T2 chain: LAETG

The target in series [2] is LPESG motif-bearing substrate.
For series [3], the target named is T3, LPETG (SEQ ID NO: 4) substrate (not fully specified).
T3 chain: LPETG

B1: P94R/D160N/D165A/K190E/K196T pentamutant sortase A (protein)
chain: MQAKPQIPKDKSKVAGYIEIPDADIKEPVYPGPATREQLNRGVSFAEENESLDDQNISIAGHTFIDRPNYQFTNLKAAKKGSMVYFKVGNETRKYKMTSIRNVKPTAVEVLDEQKGKDKQLTLITCDDYNEETGVWETRKIFVATEVKLEHHHHHH
For B1, in the series with GGG-COOH, the “Km GGG against the tetramutant” value was “the Km GGG of this mutant improved by 1.8-fold”; the “Km GGG against wild type srtA” value is given as “a 20-fold higher Km GGG”; the Km GGG-COOH came out at 2900 ± 200 µM; the Km, GGG (uM); column 5mut/wt was 2990 µM. Besides, the Km, LxExG (uM); column 5mut/2A in series [1] is 6160 µM. In series [2], the Km, LxExG (uM); column 5mut/4S was 672 µM. Also, in series [3], the “KM LPETG against the tetramutant” value was “the kcat and KM LPETG were not altered by more than a factor of 1.3-fold”; the Km LPETG stood at 230 µM; the Km, LxExG (uM); column 5mut/wt amounted to 208 µM.
